The source of these data is a protein production outcome set (Wang et al. 2014).

A short description of this series: label from the status in PepcDB records.

For the sequence “MKKKKAHAAGAGPKLSVTNPPRTFFEDTLALFNSRRFDLLDQKINEAVNKWPNHAVVWKAIGVIMLMEGRFKEAIEPLTTAANLAQGDAQLHHNLGVAYLRLEQYEKAVPWLQRATSLKPDYAQAFANLGIAQAEIGLLQAAESNYRTALKINKDFPEALNNLGNVLNDQKRYGEAEECFRRALVLKPDFAEALNNLGTSLKGLNRLEEAETTYRKSLSLMPDYTRAHIGLGHTLFKLRQPDKAAASFRRAIELSPYELEAHDGLSMTLGDTVPLWHLPMMNDKPRNDAYFNALQAAVTPETRVLEIGTGSGLLSMMSARLGARHVTTCEVVTAIAETAASIVKDNGFADQVTVIPKLSTTLEVGVDLEERADLLVSEILSSEFLGEGVLSSIEDAKRRLLKPGARIIPARGSVRIALFGGRDIEMNVRVDEVYGFDLSRFNDIVPPKQYVGRNDLNIELLSDGIGAIHFDFMGTDHFPTSRSYGIDVPITRAGRCCGVIQWIRLEMDDTFVFENHPAERNVASGWQHCVYLFKTPVDVQPGQVAQIIASHDIRTCWFFLKKIVTP”, the protein production result was “failed”.

For “MKKKLKLTSLLGLSLLIMTACATNGVTSDITAESADFWSKLVYFFAEIIRFLSFDISIGVGIILFTVLIRTVLLPVFQVQMVASRKMQEAQPRIKALREQYPGRDMESRTKLEQEMRKVFKEMGVRQSDSLWPILIQMPVILALFQALSRVDFLKTGHFLWINLGSVDTTLVLPILAAVFTFLSTWLSNKALSERNGATTAMMYGIPVLIFIFAVYAPGGVALYWTVSNAYQVLQTYFLNNPFKIIAEREAVVQAQKDLENRKRKAKKKAQKTK”, the protein production result is recorded as “failed”. The value for “MKKKMITTIIAMLVIVVMLLPTKLGPVIDKYNPFYKTKEYYTVVNTIGQHVGDEWYEYEFIAFDERGKEQKIKKTVKHMLKRDEMLKVYAKGRYGESIEEIEAVNIPINAKSKLLSMRLEHHHHHH” was “not failed”.

In the case of “MKKKNNNKLHYLDSKGKLYTSGLRSDTKEKYGEIPSSNKNHNLIEKYNELQSLLSKEEEKYDFVKNELGDLQKQKDLLKWHLCNNIKKLSMKRSDYKFKTETKSKLESKLKSLKDMNKIHKFEHDTLEELVHKMEQELETKMYIKNDIENIFNECINKKDEYLKDITQERISVFKERKKRQNQLQKLLLIMKQENNKNYNINYLKKYESNLMNEINSYKNYKDFETKIAMDLIDDHSLNDLYVT”, the protein production result is recorded as “failed”. The value for “MKKLAISIGDINSIGLEILVRSHEELSKICTPFYFIHESLLNKALKLLNLKLFNAKIVAFKDDKDYEFNFIKKENSLEIYSFCLPLGFKVDENFEIQAGEIDAKSGLYGFLSFKAASYFVYEKHAHALLTLPIHKKAWEDAGLKYKGHTDALRDFFKKNAIMMLGCKELFVGLFSEHIPLAKVSKKITFKNLSIFLKDFYKETHFKKMGLLGFNPHAGDYGVIGGEEEKIMEKAIAFVNAFLHSKKDEKFFKKALKDENLQKELLLNFKGKGVYLPYPLVADTAFTKTGLKNCNRLVAMYHDLALAPLKALYFDKSINVSLNLPIIRVSVDHGTAFDKAYKNAKINTKSYFEAAKFAINLHSKA” was “not failed”; that for “MKKLGFVLFMSMFAFVSVVPAAEAKVIDHDKVQGFSEVTPVTVSQKAAKRFQPYLKVASGCVPFPAVDAQGNTSGGLEPTGAPEGHCSKSVGQVYSRSAWYNGVWAIMYAWYFPKDSPLPLKAFGHRHDWEGIVVWIDNPANQNPKVLSIAYSQHGKFQKTAPNNNIMEGDHPKIRYDAPQPPINHSLYVDSAKGGTQPLIGWEDLTPAARNALNTTDFGSANVPFNDHNFTNNLGKAWFR” was “failed”. In the case of “MKKLILYTLILLLMSCRSTQEVDTSVYMDAKQPVDKRVEALLAQMTLEEKVGQMDMVTVWDKEAIFKNGYYDFGAWLADLEPEECNQLQKLSEQTRLKIPYLIGMDAAHGYAMLTGRTIFPTSISMAATFNRELIYRTTSKAGEEIRSSGIHWAFAPCIDIVQDARWGRTGETYGEDPFLTSELVKEAIRGYQGNENPFKKVAVSVKHLVGGGASVGGCNHASAELSERALRSYFLPPFKAAIEAGCMTIMPGHNDIAGVPVHASKWLLTDIIKQEYGFKGFFISDMGDVENLATSLHQIAENQKEAVCKSVNAGLDMHMYSADSARFVSPLVELVREKKVSSRRIDDAVRRILKIKFELGLFEKRYVSPEEDSYGSKENKALALEAAREAIVLLKNDRQILPLDRTKYKKILVTGPNADNQSILGDWSIFQPDDHVTTILEGIQAAASPEQSILYSNSGRIKAKKSDLSVNTTDPAIQKKLITEGGGISDYSIDDAVRKARQSDLAIVAIGGYGIRSEWGLRTYGESADRPSIDFYGRQLELVQAIHATGTPVVIVIVNGKPLNNEWITKNIPTIVDVWEPGMYGGQALAEILFGEVNPSGKLPITIPKHAGQIPMYYYQRPSRYWTGYGLGSSREDEKPAFCFGHGLSYTSYEYSGLKIDSVIPQTQDIEFTFTVKNTGNMAGKETALVFIRDCVSSVVTPVACLKGFEKVSLNPGESKDIRIVIPYSDLGLWNEDMKYVVESGKFNLMIGRSVEDIRIKKDFFIK” it was “failed”. In the case of “MKKLINRVDDVLSEQLQGFAKAHPEINLHPSSFYVTRHDAPVKGKVALLSGGGSGHEPMHAGFVGKGMLDGACPGEIFTSPTPDKMYDCAKAIDSGEGVLMIVKNYTGDVLNFETATELLHDEGVKIATVLVDDDVAVKDSLYTAGRRGVANTVLMEKLLGAAAERGDTLDDLVKLGHQINNNGFSIGIALQACTVPAAGKPSFTLPENEMEFGVGIHGEPGIDRRPFTSLNDTVDAMFNTLIENGHYQRTIRSWDRVNGDWIEETQEKQPLKSGDRVIALVNNLGATPLSELYGVYHRLALCCENFGLNIERSLIGSYCTSLDMSGISITLLKVDDALLTLWDAPVATPAMTK” it was “failed”; in that of “MKKLLLSLTLTVLLGLLGRPAIAANYEIKLVDEGVFAAIALPEGKAASNALIIITPHQVILAGAHFVPEGIKELIADIAEITPLPLRSVILTHHHKGFNYVDFDFPANVEIITSWQTWQALKAETRPLRNPVTFFEKGLTLLRSNTTIVLSSADFGHTEGDVFLFLPNEGILFASDLFYNDVVGYMGEGHMRDWVITLETLEAVGAQYVVPGLGQVTDRSGLRRFRLFFKDFLTEVLRHMEAGKTLAETKKLFRLPAHEGMPGYKAFLDVNLDRAYQDLRDQ”, “failed”; in that of “MKKNIRLLTHNEIPRVWEIDRTELIERLYVLQQGQLVLSEQRFDMKGWPEGEAEHYTPVLLESAERGAPFWGVFEDDKLVAATSVDPQWRGQDNTLLQLSFLHISHQQRGQGLARILFDYCVEYAKQKGASGLYISSTPSENSVNFYQHMGCRLIDVPDTELYEREPEDIHLVLNFNKED”, “failed”. As for “MKKNIVVLVLIVLIIFSAGSGCISSDVISSANTSSDEADGNTGENSALGKSADSEPDQANITPYGKSSPYLYWEYELGDVTPENTLGGRSSVQDCVSFAPDGKSVATGTGSNLTVVSVSEKNVLWTKILSGNISDLTFSEDGKYLLVGEKSADGCIYSLDANTGEEIRTYRTSDDLGTDSNPKYQPCIYKITAAEDSVYVAAGRYWKDSKYGLASRVYGFSPDGTFSWKLPATENYARSVNWIDASQDGKNVVYSIGDWTNSLESDAVVYSVDAGGKLRWKYEIPALRPYFVSAAIWHGLDVSEDGSLVTAYTGDGRTYLFYDAEMKDPGDGKSEWYSEEYQSNVTTPEELEGSAIYTYGENAKIAADNEILYLTGATLPAYYPDNIPMAHPLENSLISCDAEKGETSWTYNLGGRCAGIFFSQDMRYFVLPVGKDTSTGDTRVHGVYVFDSRKSGNGNSKLLWTFRTEGVVENAAISSNCTVAAVEVPLQLENGDVTGKHRLIIVR”, the protein production entry is recorded as “failed”.

In the case of “MKKNKIGGSQSMFNKVWFRTGIFFIMLFILIKLFMEVHEVFAPIATIIGSVFLPFLISGFLFYICLPFQNILEKWGFPRWASITTIFIGLIVIIAIVVSFIAPIIISNINNLIKQTPSLQKEAEQLINFSLRQMDKLPDDVTHRINKAVKSMGDGATSILSNSVSYITSFISTVFLLIMVPFFLIYMLKDHEKFIPAIGKFFKGERKVFVVDLLKDLNFTLKSYIQGQVTVSIILGIILYIGYTIIGLPYTPLLVLFAGVANLIPFLGPWLSFAPAAILGIIDGPSTFIWVCVVTLIAQQLEGNVITPNVMGKSLSIHPLTIIVVILAAGDLGGFTLILVAVPLYAVIKTLVSNIFKYRQRIVDKANSNVKD”, the protein production entry is reported as “failed”.

Regarding “MKKNKLTTLALILPITILTPIVIASCTNKTKVKKSSSLDKIASNLKLEYFNNKANTKASSVQKDEIKKPLNLPNDVVFSVKDVFVSHKDQSVLIVKYTLKKGNEIQEYTYEIKGFKSVYEKDKIVNDLSQANEDFKKIVNNIRLKDTFDFKLAAFPNQNYDQLLPSQIYKNYYQGIEIQQHKYQNELDIKIINFLYPDGDFGSANKNGTLKLSLMLTDKKNNQVYYKLLEVSGFKSNPYGVDENGTIPGIGTERLKPKNQDDYFSKTQLQRYEIDNEGYLQILKRQNNDKNWKELRPDLNATVSDIKHFDEKAKNVGQDSYESAAYKGFTLPVYESDGKISGLALAGKDTPKGPSWVDAIGRNQWQIGGLPRTLPNEKYRQEAMQTFSLGILNNDSHKNNTYNKTAGTTWILDYQKTSDNKYPTKWYFATNLHVADAINENTLSINLMRLMDSAQIKTTFRLSNLDENIYNFGFRSKEHGKNLLNHGLKKIFDGRDFLKTKPAEYLINSQKEKYKDVGNFTDFAVFELDFEKLELVNVWKNFLGENNGLVTKYNNYNPQELAKVITSNYANNKNNQIKFLSKSYLSDYSKIDVPLKYRQEDAKTWFKKYDELFALGWPNSTEDFFFKAYVDDDQLKYRTRDNFSLWTNSDYRFFNNLTQQEGGQPAFPPERTERGNYLSYAIGFRSFIQKPGIVDAFIAVPQIGNNLYTSSDNKKYINMGLEYLPKHFAPAGGASGTSVRNQKNELVAIYHAKYDSSKTGLAAAFRSEGYDYQGLYGNYNLPQYDLIYGGGKDQTEKKSYREAMKDIYQNNNIKTALFPDGFDKIPDEFKFNNN”, the protein production result is “failed”. On to “MKKNLFYLFALICSMSLFTACSDDDEAPGNSGVVGEVVGDYKGLMDVYYEPNVEIAKGMQQKITIKKSSDTSIGLELKNFVITVGGAPITIGDLAIDNCPLKVEGDKYSFTGNADLDLVVGKCAVSVEGAINGEDIELIIKVNVNNDLMKVRVEYKGKKMTGNESSEALIKEFKFDSDIIAEQPVINEDKTITFKVAETATDDDLKALKPIITISENATVTPESGVTQDFSGNKVVIYKVTSEDGTTVTEYKVSARKSSDALITSFVFENNPIVAEQPVINEDNTITFKVKASATADDLKALVPTITYSHKATIAPESGVAQDFSDNKKVIYTVTSEDGTVIKEYQVFISGTEDVYDFEKWLPGVEGQEPENTFYEAEGWASSNTGAHFLKGFNLTDSYVIMQTDDSHSGTAAAKIQSIDTKGQDLGIAKAPKVTTGSLFLGKFKTDIFNTLNSTKFGIPCKEKPISLRGWYKYTPGDVYYIVNTKPYKEHCHEAVVDETKVDEFMISVVLYETTAYDEIGWSDCLTGTDEEEKNIYTSSRIAAIGQLIGGAQTDWKKFELPLEWKKQYDTNKKYRMTIACSSSKDGDKFWGAPGSTLIVDDFELIKE”, for which the protein production entry is “failed”. As to “MKKPFFGFMFIALFSASLFCNPADLYQKGAEYQANEDWYGAIEMYQSALKENPSYNLVYQGLAECFYALDEYDQALSFVESARKYKKDDPDLQNLHGFILVGLGKIDAAKTLFNGVLKKYPNNPEARFGLAEIEVSQGKLYLASEMYKQNLQRQGENRKDLLSLALVSYEAGNVKQAEDYINRALKYHGDNPQVHYFAAYLHSLDGKLEEAEGRIYSALKLKEDYDEAYALLASVLYAQKRYEEVIKISDMRISKKRDRADAWYLKTLSLRQLARYGEAINAAKVGLSLDADDEIMRCLLEELAIENLNFEDSFRMELSKYHAQKALGFFRRNMTEQALYEYRRTLKIYPYDVESREAYAGILLRLGYPERYLEQMLFIQSIVKSNTKVNDAVEAYEKHLLSSIQSKWRIDPLYLDKAHISIGLFYTMESSNVLHPEAERITQILTSDIFSYNPRIKITSYSDKPVTYREASKKSRTANEDYFGIIRLKENRRDIQIILELYVSRTGSPAKTFTVYRSGNDRFSNGIRRLSSMLNEAMPIVGKLINRYQNEAVIDIGKHDSDFKDLKIAVIRKDRLVIEKEGLGMVFDPSDLLGYFEPSKSEENLSEGILKRNGYYDRMNAGDSIILVSENAKEKAAEDYTNSYQKNSLLLLLLRRIR”, the protein production entry was “failed”.
